± gives the uncertainty stated by the source.
Test: protein stability index of a GFP-peptide fusion (yeast GPS) (PSI 1-4); higher = more stable; sorted into four equal gates, so the index is relative within each strain
Method in brief: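 Mid-log yeast cultures in leucine-free medium, carrying a pooled plasmid library, were sorted into four equal gates by their GFP/Cherry fluorescence ratio. Each plasmid expressed Cherry along with GFP fused upstream of a tiled 17-residue yeast protein peptide. Plasmids recovered from each gate were PCR-amplified and Illumina-sequenced, with reads assigned to strains by barcodes. The protein stability index was obtained by summing each gate's read frequency weighted by its gate number.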

Sequence | protein stability index (doa10∆) | protein stability index (pdr5∆) | protein stability index (san1∆) | protein stability index (ubr1∆)
RSNDPQSSLSKVDIPLE [NUT2] | 3.02 ± 0.098 | 3.23 ± 0.094 | 3.27 ± 0.056 | 2.93 ± 0.15
EVIFTDVLKSQANTEPE [MCD1] | 3.07 ± 0.21 | 3.08 ± 0.12 | 2.97 ± 0.088 | 2.95 ± 0.12
VKPLESSAKRSKNTAVS [SRP72] | 2.7 ± 0.073 | 2.92 ± 0.11 | 2.21 ± 0.096 | 2.63 ± 0.05
LKQNAIRARIPFYGSYT [SRP54] | 2.82 ± 0.077 | 2.8 ± 0.063 | 2.5 ± 0.087 | 2.89 ± 0.062
GGDTCSSDGALCMDSSY [POP1] | 2.24 ± 0.054 | 2.54 ± 0.051 | 1.83 ± 0.082 | 2.27 ± 0.036
RLGLIPLQSMDIEQLEY [RPB3] | 2.75 ± 0.067 | 2.92 ± 0.063 | 2.91 ± 0.088 | 2.72 ± 0.083
TNQIFQSRRYNLRRHSD [SIN4] | 2.94 ± 0.045 | 3.18 ± 0.04 | 3.04 ± 0.045 | 3.08 ± 0.031
AKPDEKKNDEVSKPAFS [YJL041W/NSP1] | – | 3.11 ± 0.19 | 2.94 ± 0.29 | 3.2 ± 0.14
QNISPVYSVDPLEKITD [PRP8] | 2.94 ± 0.083 | 2.9 ± 0.084 | 2.86 ± 0.054 | 2.85 ± 0.079
RESFEDNVVRFLNEARD [RPO21] | 3.21 ± 0.15 | 2.98 ± 0.13 | 3.04 ± 0.16 | 2.92 ± 0.11
SHERFFLSQGLHVVITL [CSN12] | 2.89 ± 0.099 | 2.94 ± 0.094 | 2.74 ± 0.18 | 2.87 ± 0.12
QEPFLNSSNYAELFNND [PRP8] | 2.61 ± 0.051 | 2.86 ± 0.046 | 2.55 ± 0.071 | 2.82 ± 0.048
GRNLGRIGTIVHKERHD [RPS4A] | 2.42 ± 0.13 | 2.03 ± 0.098 | 2.5 ± 0.059 | 2.63 ± 0.061
VNGAKNLVVSGPPQSLY [FAS1] | 2.07 ± 0.1 | 1.78 ± 0.066 | 2.03 ± 0.088 | 2.2 ± 0.052
DTLKLRENLHILNEVFT [RRP6] | 2.26 ± 0.092 | 2.87 ± 0.06 | 2.59 ± 0.058 | 2.4 ± 0.051
LSGGQKTVCAIALILAI [SMC3] | – | 1.94 ± 0.19 | – | 2.74 ± 0.12
GLRNQNMVRNNNNNTID [GRR1] | 2.75 ± 0.063 | 2.86 ± 0.071 | 2.83 ± 0.057 | 2.96 ± 0.038
HLAICLDIINPGSVEEV [YDL116W/NUP84] | 2.66 ± 0.098 | 2.77 ± 0.089 | 2.46 ± 0.13 | 3.45 ± 0.088
NYASVYPVVEVERGRVG [RRP43] | 3.48 ± 0.14 | 3.57 ± 0.11 | 3.43 ± 0.093 | 3.42 ± 0.056
DINTVNTNLMNGVNVQI [GRR1] | 3.21 ± 0.097 | 3 ± 0.087 | 2.98 ± 0.074 | 3.06 ± 0.073
LSMRFQRETSGMIVISM [SRB8] | 2.13 ± 0.081 | 2.05 ± 0.062 | 1.54 ± 0.067 | 1.97 ± 0.058
ESKSDDNSATSYYELET [RRI1] | 3.25 ± 0.084 | 3.24 ± 0.059 | 3.13 ± 0.067 | 3.19 ± 0.057
RIMSRNFYLKRFISDLL [SWI1] | 2.32 ± 0.058 | 2.37 ± 0.074 | 2.08 ± 0.095 | 1.54 ± 0.034
KVEKRVLGLTILRGEQI [SMB1] | 1.69 ± 0.078 | 2.15 ± 0.12 | 2 ± 0.17 | 1.95 ± 0.091
SELNEGNLSKREIQIDA [SRB8] | 2.69 ± 0.062 | 2.88 ± 0.073 | 2.98 ± 0.069 | 2.12 ± 0.063
TRLKSLLKPFHVKVNDK [SIR3] | 2.65 ± 0.093 | 2.96 ± 0.082 | 2.79 ± 0.075 | 2.81 ± 0.052
PKSTKGKILTIKQQQQQ [YML103C/NUP188] | 2.39 ± 0.038 | 2.59 ± 0.046 | 2.42 ± 0.062 | 2.52 ± 0.04

Sequence | protein stability index (doa10∆) | protein stability index (pdr5∆) | protein stability index (san1∆) | protein stability index (ubr1∆)
NNNINENELFNDRKQTT [SSN2] | 2.71 ± 0.12 | 3.09 ± 0.1 | 2.87 ± 0.1 | 2.78 ± 0.14
VTADTVILFDSDWNPQA [ISW2] | 3.08 ± 0.071 | 2.76 ± 0.058 | 2.81 ± 0.089 | 2.52 ± 0.044
STVSANHSNNDIPTIAD [BRN1] | 3.22 ± 0.097 | 3.03 ± 0.093 | 3.02 ± 0.069 | 3.24 ± 0.074
EAEVTAEVNGGDDEATE [BRR2] | – | 3.24 ± 0.12 | – | 2.72 ± 0.21
INQEKPVKLDENSANST [SIR4] | – | – | 3.51 ± 0.18 | –
SYEKNEDHVEDHRKRKK [LIN1] | 3.25 ± 0.1 | 3.36 ± 0.1 | 3.38 ± 0.084 | 3.21 ± 0.054
EEKEEENGDEDEDEDED [QCR6] | 3.68 ± 0.17 | 3.34 ± 0.27 | 3.27 ± 0.084 | 3.64 ± 0.08
CFVLGIASMSTVRASSL [SMC2] | 1.51 ± 0.056 | 1.86 ± 0.055 | 1.83 ± 0.072 | 1.94 ± 0.065
GDPFDYKAQADTFYMNV [RPB3] | 3.4 ± 0.1 | 3.44 ± 0.1 | 3.33 ± 0.063 | 3.36 ± 0.083
CLFTKCLEDPEKPFNEN [POP4] | 2.67 ± 0.15 | 3.02 ± 0.15 | 2.7 ± 0.2 | 2.96 ± 0.079
ALNDVYLDADVAKLANW [YML031W/NDC1] | 2.85 ± 0.2 | 3.52 ± 0.22 | 3.67 ± 0.22 | 3.73 ± 0.24
NDSETHTEDESTKELKF [BRN1] | 3.2 ± 0.17 | 3.13 ± 0.13 | 3.17 ± 0.094 | 3.19 ± 0.068
FNTNSSFTPSTVPNINF [YOR098C/NUP1] | 2.48 ± 0.04 | 2.42 ± 0.032 | 2.54 ± 0.04 | 2.77 ± 0.029
GGAKSRGVRPYKHIDAS [RPS19A] | 3.12 ± 0.11 | 3.38 ± 0.14 | 2.93 ± 0.082 | 2.98 ± 0.12
LFKKFNNDFKLSIDKVL [RET1] | 1.66 ± 0.12 | 1.8 ± 0.11 | 2.15 ± 0.15 | 2.67 ± 0.093
LSLTAFTKNEEKLLKEL [ITC1] | 2.24 ± 0.081 | 2.29 ± 0.072 | 2.29 ± 0.08 | 2.44 ± 0.26
LRWFELKPKLYYEQFRP [SIR3] | 3.21 ± 0.074 | 2.98 ± 0.067 | 2.71 ± 0.077 | 3 ± 0.047
AVKKLYAIIINYTKDNE [YCS4] | 1.82 ± 0.057 | 2.05 ± 0.068 | 1.93 ± 0.1 | 1.91 ± 0.029
AALDITNVQRIAAYIRR [SMC1] | 3.08 ± 0.16 | 3.07 ± 0.17 | 3.24 ± 0.13 | 3.09 ± 0.091
KTESQDVETRVQNLEQT [DPB4] | 3.49 ± 0.091 | 3.32 ± 0.065 | 3.2 ± 0.047 | 3.24 ± 0.048
YKKPTGGIVTVRSEMGE [FAS1] | 2.66 ± 0.13 | 1.69 ± 0.069 | 1.32 ± 0.18 | 1.39 ± 0.082
TRRKRRQGRSNRRGMLA [SNF5] | 2.51 ± 0.13 | 2.71 ± 0.14 | 2.86 ± 0.11 | 2.99 ± 0.11
TDLIREKTMMTFGKPEE [YCS4] | 3.14 ± 0.053 | 3.31 ± 0.062 | 3.19 ± 0.041 | 3.11 ± 0.05
PMVSVMKMDKSPTESYS [RPT2] | 1.64 ± 0.11 | 1.57 ± 0.088 | 1.11 ± 0.2 | 1.71 ± 0.093
GLQNVRKVRTKKWKKYW [SWP82] | 3.6 ± 0.2 | – | 3.26 ± 0.25 | –
HVVTREKGPQVCAKLFG [RPO21] | 3.24 ± 0.082 | 2.81 ± 0.079 | 2.95 ± 0.097 | 3.08 ± 0.1
DNYFNLQLNEAEEFVAG [SMX3] | 2.76 ± 0.16 | 2.8 ± 0.16 | 2.5 ± 0.1 | 3.12 ± 0.12

Source: the supplement of paper PMC9732359
